{"source": "patent US20260028422A1", "about": "(CONCEPT TO MEDICINE BIOTECH, published 2026)", "binders": {"B1": {"name": "265F11B5Hu-9 (antibody, V domains shown)", "VH": "QVQLVQSGAEVKKPGASVKVSCKASGYTFTTYDINWVRQAPGQGLEWMGWIYPRDGYTKYNEKFKGRVTMTTDTSTSTAYMELRSLRSDDTAVYYCARGYYDNLYYFDYWGQGTTVTVSS", "VL": "EIVLTQSPDFQSVTPKEKVTITCSASSIISSNYFHWYQQKPDQSPKLLIYRTSNLASGVPSRFSGSGSGTDYTLTINSLEAEDAATYYCQQGRSVPLTFGQGTKLEIK"}, "B2": {"name": "265F11B5Hu-2 (antibody, V domains shown)", "VH": "B1 VH with A97T", "VL": "B1 VL with Y50K, Y72F"}, "B3": {"name": "10F7D9 Hu-2 (antibody, V domains shown)", "VH": "QIQLVQSGSELKKPGASVKVSCKASGYTFTNYGMNWVRQAPGQGLEWMGWINTYTGEPTYADDFKGRFVFSLDTSVSTAYLQISSLKAEDTAVYYCATYGHYAWFAYWGQGTLVTVSS", "VL": "EIVLTQSPDFQSVTPKEKVTITCRASSSVSYMHWYQQKPDQSPKLLIKATSNLASGVPSRFSGSGSGTDFTLTINSLEAEDAATYYCQQWGTKPLTFGQGTKLEIK", "notes": "also called Hu-2 of 10F7D9"}, "B4": {"name": "10F7D9 Hu-6 (antibody, V domains shown)", "VH": "B3 VH with I2V, V20I, S84N, S85N, Y95F", "VL": "B3 VL", "notes": "also called Hu-6 of 10F7D9"}, "B5": {"name": "10F7D9 Hu-8 (antibody, V domains shown)", "VH": "B3 VH", "VL": "B3 VL with L45P, L46W", "notes": "also called Hu-8 of 10F7D9"}, "B6": {"name": "10F7D9 Hu-3 (antibody, V domains shown)", "VH": "B3 VH with Y95F", "VL": "B3 VL", "notes": "also called Hu-3 of 10F7D9"}, "B7": {"name": "10F7D9 Hu-14 (antibody, V domains shown)", "VH": "B3 VH", "VL": "B3 VL with L45P, L46W, K48Y, Y86F", "notes": "also called Hu-14 of 10F7D9"}, "B8": {"name": "10F7D9 Hu-1 (antibody, V domains shown)", "VH": "B3 VH with I2V, T98R", "VL": "B3 VL", "notes": "also called Hu-1 of 10F7D9"}, "B9": {"name": "10F7D9 Hu-4 (antibody, V domains shown)", "VH": "B3 VH with E46K, Y95F", "VL": "B3 VL", "notes": "also called Hu-4 of 10F7D9"}}, "key": {"[1]": {"target": "T1, human MerTK-his protein (human, UniProt Q12866 21-505)", "T1 construct": "extracellular domain; also called hMerTK-His; human MerTK protein", "T1 sequence (looked up)": "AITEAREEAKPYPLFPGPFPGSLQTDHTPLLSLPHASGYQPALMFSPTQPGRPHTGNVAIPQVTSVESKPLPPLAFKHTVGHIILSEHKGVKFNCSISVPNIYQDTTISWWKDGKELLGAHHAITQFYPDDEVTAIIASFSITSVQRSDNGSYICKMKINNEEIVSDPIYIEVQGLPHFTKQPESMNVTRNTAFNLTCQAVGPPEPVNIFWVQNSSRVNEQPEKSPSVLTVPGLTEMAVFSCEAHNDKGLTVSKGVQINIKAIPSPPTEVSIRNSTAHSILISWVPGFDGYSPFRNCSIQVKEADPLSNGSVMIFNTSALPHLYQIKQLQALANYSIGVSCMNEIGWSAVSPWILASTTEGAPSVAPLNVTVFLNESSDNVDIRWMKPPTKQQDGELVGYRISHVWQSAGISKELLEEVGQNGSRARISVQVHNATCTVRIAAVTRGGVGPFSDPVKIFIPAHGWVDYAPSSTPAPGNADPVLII", "test": "ELISA, plate coated with human MerTK-his, OD 450nm", "description": "To evaluate the binding activity, the chimeric mAbs were subjected to ELISA test. Briefly, 96-well plates were coated with human or cyno MerTK-his protein at 2 μg/mL in PBS, 100 μL/well at 4° C. overnight, then blocked with 150 μL/well of 1% BSA. Five-fold dilutions of MerTK antibodies starting from 20 nM were added to each well and incubated for 1 hour at room temperature. The plates were washed with PBS/Tween-20 and then incubated with goat anti-human IgG Fe antibody conjugated with Horse Radish Peroxidase (HRP) for 30 minutes (mins) at room temperature. After washing, the plates were developed with TMB substrate and subsequent stop solution was added to complete the reaction. The signal from each well was read by spectrophotometer at OD 450 nm.\nTo evaluate the antigen binding activity, the humanized antibodies were subjected to ELISA test as described before."}, "[2]": {"target": "T1, human MerTK-his protein", "test": "SPR Biacore 8K, antibody captured on Protein A chip, 50 nM antigen", "description": "To explore whether the humanized antibodies could maintain their binding kinetics, affinity ranking were performed with Biacore™. The antibodies were captured with a Protein A chips. Human MerTK-his protein at 50 nM was injected over captured antibodies for 180 s at a flow rate of 30 μL/min. The antigen was allowed to dissociate for 600 s. The experiment was carried out on a Biacore™ 8K. Data analysis was carried out using Biacore™ 8K evaluation software."}, "[3]": {"target": "T2, human MerTK expressed on cells (human, UniProt Q12866 21-999)", "T2 construct": "whole, on cells; also called CHO-K1-hMerTK; CHO-K1-MerTK", "T2 sequence (looked up)": "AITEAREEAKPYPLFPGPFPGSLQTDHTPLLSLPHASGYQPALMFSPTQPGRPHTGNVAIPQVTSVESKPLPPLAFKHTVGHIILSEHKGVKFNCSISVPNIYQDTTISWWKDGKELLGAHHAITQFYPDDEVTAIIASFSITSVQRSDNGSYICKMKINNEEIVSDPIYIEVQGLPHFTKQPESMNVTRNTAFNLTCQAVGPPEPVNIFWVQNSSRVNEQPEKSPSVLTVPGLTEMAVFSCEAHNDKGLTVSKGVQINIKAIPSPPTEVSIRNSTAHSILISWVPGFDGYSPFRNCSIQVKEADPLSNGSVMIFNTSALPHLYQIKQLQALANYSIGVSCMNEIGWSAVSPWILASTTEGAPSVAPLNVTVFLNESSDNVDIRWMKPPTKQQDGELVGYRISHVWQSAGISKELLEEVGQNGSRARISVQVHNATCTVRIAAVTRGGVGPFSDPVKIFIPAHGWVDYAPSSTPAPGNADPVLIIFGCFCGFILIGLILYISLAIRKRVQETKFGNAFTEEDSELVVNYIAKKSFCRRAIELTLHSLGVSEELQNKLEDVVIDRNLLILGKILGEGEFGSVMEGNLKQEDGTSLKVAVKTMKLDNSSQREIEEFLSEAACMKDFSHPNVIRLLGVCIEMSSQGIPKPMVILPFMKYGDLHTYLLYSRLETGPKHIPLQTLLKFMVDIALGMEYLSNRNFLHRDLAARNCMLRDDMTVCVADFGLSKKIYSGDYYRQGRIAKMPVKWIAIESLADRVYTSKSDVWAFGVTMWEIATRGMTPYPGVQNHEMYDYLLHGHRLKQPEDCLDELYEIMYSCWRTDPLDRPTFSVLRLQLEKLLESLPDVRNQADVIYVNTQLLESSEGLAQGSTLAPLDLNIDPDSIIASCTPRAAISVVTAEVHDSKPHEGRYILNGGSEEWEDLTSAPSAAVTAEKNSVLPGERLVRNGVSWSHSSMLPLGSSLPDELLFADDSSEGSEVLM", "test": "FACS on CHO-K1 cells overexpressing human MerTK, MFI (AF488)"}, "[4]": {"target": "T2, human MerTK expressed on cells", "test": "FACS on CHO-K1 cells overexpressing human MerTK, MFI (PE)", "description": "To evaluate the binding property to the antigen expressed on the cells, the chimeric monoclonal antibodies were analyzed for their binding to human MerTK overexpressed on CHO-K1 cells by FACS. Briefly, human MerTK overexpressing CHO-K1 (CHO-K1-MerTK) cells were firstly incubated with 5-fold serially diluted mAbs starting at 20 nM at 4° C. for 1 hour. After washing with FACS buffer, the PE conjugated anti-human IgG-Fc secondary antibody was added to each well and incubated at 4° C., for 30 mins. The mean fluorescence intensity (MFI) of PE were evaluated by QuantAnalyzer 16.\nTo evaluate the binding property to the antigen expressed on the cells, the humanized antibodies were analyzed by FACS as described before."}}, "note": "Where a chain is given by its changes, count along the chain named.", "data": [{"binder": "B1", "values": [{"measurement": "EC50", "setting": "[1]", "value": 0.059, "unit": "nM"}, {"measurement": "Kd", "setting": "[2]", "value": 2.17, "unit": "nM"}, {"measurement": "koff", "setting": "[2]", "value": 0.000443, "unit": "s⁻¹"}, {"measurement": "kon", "setting": "[2]", "value": 204000, "unit": "M⁻¹ s⁻¹"}, {"measurement": "EC50", "setting": "[3]", "value": 0.19, "unit": "nM"}]}, {"binder": "B2", "values": [{"measurement": "EC50", "setting": "[1]", "value": 0.054, "unit": "nM"}, {"measurement": "Kd", "setting": "[2]", "value": 1.27, "unit": "nM"}, {"measurement": "koff", "setting": "[2]", "value": 0.00025, "unit": "s⁻¹"}, {"measurement": "kon", "setting": "[2]", "value": 197000, "unit": "M⁻¹ s⁻¹"}, {"measurement": "EC50", "setting": "[3]", "value": 0.14, "unit": "nM"}]}, {"binder": "B3", "values": [{"measurement": "EC50", "setting": "[1]", "value": 0.035, "unit": "nM"}, {"measurement": "EC50", "setting": "[4]", "value": 0.45, "unit": "nM"}]}, {"binder": "B4", "values": [{"measurement": "EC50", "setting": "[1]", "value": 0.033, "unit": "nM"}, {"measurement": "EC50", "setting": "[4]", "value": 0.45, "unit": "nM"}]}, {"binder": "B5", "values": [{"measurement": "EC50", "setting": "[1]", "value": 0.0024, "unit": "nM"}, {"measurement": "EC50", "setting": "[4]", "value": 0.1, "unit": "nM"}]}, {"binder": "B6", "values": [{"measurement": "EC50", "setting": "[1]", "value": 0.034, "unit": "nM"}, {"measurement": "EC50", "setting": "[4]", "value": 1.2, "unit": "nM"}]}, {"binder": "B7", "values": [{"measurement": "EC50", "setting": "[1]", "value": 0.027, "unit": "nM"}, {"measurement": "EC50", "setting": "[4]", "value": 0.15, "unit": "nM"}]}, {"binder": "B8", "values": [{"measurement": "EC50", "setting": "[1]", "value": 0.028, "unit": "nM"}, {"measurement": "EC50", "setting": "[4]", "value": 0.29, "unit": "nM"}]}, {"binder": "B9", "values": [{"measurement": "EC50", "setting": "[1]", "value": 0.027, "unit": "nM"}, {"measurement": "EC50", "setting": "[4]", "value": 0.47, "unit": "nM"}]}]}
